In US6509443 one finds binding result, IC50 and shift of the binding curve against G1S-A70V phage data, which are given here for two molecules.

Numbering of substitutions follows the chain as printed. Numbers in names are those of the source. Some results are limits rather than exact numbers.

First the molecules themselves.
T1: IGF-I T4A on phage (G1S-A70V background, gene III fusion) (human; bacteriophage M13)
T1 construct: monovalent on M13 phage; not shown: M13 gene III fragment (residues 249-406) and the junction after residue 70
T1 chain: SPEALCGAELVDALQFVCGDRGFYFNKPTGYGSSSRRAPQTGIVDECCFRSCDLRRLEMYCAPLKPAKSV

T2: IGF-I L5A on phage (G1S-A70V background, gene III fusion) (human; bacteriophage M13)
T2 construct: monovalent on M13 phage; not shown: M13 gene III fragment (residues 249-406) and the junction after residue 70
T2 chain: T1 chain with A4T, L5A

T3: IGF-I F49A on phage (G1S-A70V background, gene III fusion) (human; bacteriophage M13)
T3 chain: T1 chain with A4T, F49A

B1: IGF-I E3A on phage (G1S-A70V background, gene III fusion) (ligand)
chain: T1 chain with E3A, A4T
notes: monovalent on M13 phage; not shown: M13 gene III fragment (residues 249-406) and the junction after residue 70
B2: human IGFBP-1 (other, UniProt P08833 26-259, looked up)
chain: APWQCAPCSAEKLALCPPVSASCSEVTRSAGCGCCPMCALPLGAACGVATARCARGLSCRALPGEQQPLHALTRGQGACVQESDASAPHAAEAGSPESPESTEITEEELLDNFHLMAPSEEDHSILWDAISTYDGSKALHVTNIKKWKEPCRIELYRVVESLAKAQETSGEEISKFYLPNCNKNGFYHSRQCETSMDGEAGLCWCVYPWNGKRIPGSPEIRGDPNCQIYFNVQN
notes: mature

The target of the test “human IGFBP-1” is B2. Briefly: competitive phage ELISA. How it is done: (§1) Phage particles were harvested and resuspended in PBS buffer as described in Lowman, H. B., "Phage Display of Peptide Libraries on Protein Scaffolds," in Cabilly, S. (ed.), *Combinatorial Peptide Library Protocols* (Humana Press Inc.: Totowa, N.J., 1998), pp. 249–264. Then phage concentrations were normalized to yield a maximal ELISA signal of 0.2–0.4 for each mutant (Lowman, in Cabilly, S. (ed.), supra). Threefold serial dilutions of soluble competitor were prepared on non-absorbent microtiter plates (Nunc, F, 96 wells) with binding buffer (0.5% TWEEN™ 20/PBS) containing phage at the previously-determined concentrations. […] After blocking, the plates containing immobilized target were washed with 0.05% TWEEN™/PBS buffer and subsequently incubated with 80 μl/well of the premixed phage-competitor solutions for 1 hour at room temperature. […] Numbers in Table I represent mean±standard deviation of individually assessed $IC50$ values.
(§2) At least two different clones of every mutant were tested.

The target in test [1] is T4, recombinant human IGFBP-3 (human, UniProt P17936 28-291).
T4 construct: mature
As to the kind of experiment: competitive phage ELISA. As for the experimental part: as §1, §2
For orientation: In an ELISA, binding on a coated surface is turned into a signal by an enzyme label.

Test [2] concerns the target T5, IGF-I S69A on phage (G1S-A70V background, gene III fusion) (human; bacteriophage M13).
T5 construct: monovalent on M13 phage; not shown: M13 gene III fragment (residues 249-406) and the junction after residue 70
Briefly: competitive phage ELISA, soluble vs coated IGFBP-1. As for the experimental part:
as §1, §2

For test [3], the target named is T6, IGF-I V70A on phage (single mutant of G1S-A70V, gene III fusion) (human; bacteriophage M13).
T6 construct: monovalent on M13 phage; not shown: M13 gene III fragment (residues 249-406) and the junction after residue 70
Briefly: competitive phage ELISA, soluble vs coated IGFBP-1. How it is done: as §1, §2

The target of test [4] is B1. As to the kind of experiment: competitive phage ELISA, soluble vs coated IGFBP-1. How it is done:
as §1, §2

Test [5] addresses T7, IGF-I S1G on phage (single mutant of G1S-A70V, gene III fusion) (human; bacteriophage M13, UniProt P05019 49-117).
T7 construct: monovalent on M13 phage; not shown: M13 gene III fragment (residues 249-406) and the junction after residue 70
As to the kind of experiment: competitive phage ELISA, soluble vs coated IGFBP-1. As for the experimental part: as §1, §2

The target in test [6] is T1, IGF-I T4A on phage (G1S-A70V …). As to the kind of experiment: competitive phage ELISA, soluble vs coated IGFBP-1. As for the experimental part: as §1, §2
The target of test [7] is T2, IGF-I L5A on phage (G1S-A70V …). Briefly: competitive phage ELISA, soluble vs coated IGFBP-1. As for the experimental part: as §1, §2
Test [8] concerns the target T3, IGF-I F49A on phage (G1S-A70V …). Briefly: phage ELISA on coated IGFBP-3, soluble IGFBP-1 as competitor (FIG. 3A). To be noted: remark: other sources report otherwise.

T4 sequence (P17936 28-291): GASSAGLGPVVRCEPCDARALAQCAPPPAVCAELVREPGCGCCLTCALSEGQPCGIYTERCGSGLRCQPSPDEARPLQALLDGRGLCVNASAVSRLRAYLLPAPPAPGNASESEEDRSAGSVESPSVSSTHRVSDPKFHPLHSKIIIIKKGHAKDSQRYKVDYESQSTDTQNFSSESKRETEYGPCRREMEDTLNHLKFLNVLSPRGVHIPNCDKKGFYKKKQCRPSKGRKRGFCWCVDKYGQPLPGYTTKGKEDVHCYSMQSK

As to B1, the binding result (with human IGFBP-1; in test [1]) was “binds” throughout.

Regarding B2, the IC50 (usually the concentration at which inhibition is half-maximal) in [2] stood at 12.8 nM; in [3], 19.1 nM; in [4], 278 nM; in [5] it was 11.2 nM; in test [6] it was 19.4 nM; in test [7], 55.3 nM. The shift of the binding curve against G1S-A70V phage in [8] is above 100 fold.
